From paper PMC3140970, “The Eps8/IRSp53/VASP Network Differentially Controls Actin Capping and Bundling in Filopodia Formation” (PLoS Computational Biology, 2011)

Target: T1, His-IRSp53 (UniProt Q9UQB8 1-552)
T1 sequence (looked up): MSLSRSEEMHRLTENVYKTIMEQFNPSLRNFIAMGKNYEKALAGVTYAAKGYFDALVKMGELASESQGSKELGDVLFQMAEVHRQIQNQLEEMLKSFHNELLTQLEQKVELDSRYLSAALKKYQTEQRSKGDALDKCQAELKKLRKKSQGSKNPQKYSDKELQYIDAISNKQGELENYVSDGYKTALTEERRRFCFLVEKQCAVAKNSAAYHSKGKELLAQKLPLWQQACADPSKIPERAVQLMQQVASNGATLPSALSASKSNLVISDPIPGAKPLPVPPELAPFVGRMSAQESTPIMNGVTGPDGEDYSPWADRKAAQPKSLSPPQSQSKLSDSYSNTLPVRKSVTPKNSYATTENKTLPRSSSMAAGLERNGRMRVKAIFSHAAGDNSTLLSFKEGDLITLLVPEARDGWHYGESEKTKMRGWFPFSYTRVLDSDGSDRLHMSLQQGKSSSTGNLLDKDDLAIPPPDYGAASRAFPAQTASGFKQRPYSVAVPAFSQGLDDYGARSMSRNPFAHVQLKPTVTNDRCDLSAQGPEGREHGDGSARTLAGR
Assay: far-Western, overlay or dot blot; 10 pmoles of His-IRSp53, GST-IRSp53-SH3 or BSA spotted onto nitrocellulose, incubated with increasing concentrations of purified VASP; anti-VASP immunoblot; fraction bound against total VASP; apparent dissociation constant
Details: both partners purified

Kd: 12.5 nM
B1: VASP, recombinant, cleaved from GST (natural protein, human, UniProt P50552 1-380, looked up)
chain: MSETVICSSRATVMLYDDGNKRWLPAGTGPQAFSRVQIYHNPTANSFRVVGRKMQPDQQVVINCAIVRGVKYNQATPNFHQWRDARQVWGLNFGSKEDAAQFAAGMASALEALEGGGPPPPPALPTWSVPNGPSPEEVEQQKRQQPGPSEHIERRVSNAGGPPAPPAGGPPPPPGPPPPPGPPPPPGLPPSGVPAAAHGAGGGPPPAPPLPAAQGPGGGGAGAPGLAAAIAGAKLRKVSKQEEASGGPTAPKAESGRSGGGGLMEEMNAMLARRRKATQVGEKTPKDESANQEEPEARVPAQSESVRRPWEKNSTTLPRMKSSSSVTTSETQPCTPSSSDYSDLQRVKQELLEEVKKELQKVKEEIIEAFVQELRKRGSP
notes: also called purified VASP; recombinant human VASP
